According to patent US9766240B2, “Method of identifying a compound for treating a hypoxic or ischemic related disorder” (Dana Farber Cancer Institute, Inc., priority 2001, dated 2017):
Square brackets hold non-standard residues; d marks the D form. Ends that are not written are not given here. Hyp = O=C(O)[C@@H]1C[C@@H](O)CN1

Experiments:
[1] = molecular target: T1, pVHL (Homo sapiens, UniProt P40337); assay: Binding of 35S-labeled pVHL to immobilized biotinylated HIF (556-575) peptides; details: peptide on monomeric avidin Sepharose, autoradiography
T1 construct: made in house; host or cells: coupled in vitro transcription/translation (TNT kit, Promega)

[2] = molecular target: T2, HIF bound to HA-pVHL (Homo sapiens, UniProt P40337); assay: Peptide elution of HIF coimmunoprecipitated with HA-pVHL from ts20 cells; type: binding; details: 7 μg of peptide in 65 μl PBS
T2 construct: expressed in transfected cells; host or cells: ts20 cells stably transfected with pIRES-HA-VHL
Method: Individual G418-resistant colonies were isolated using cloning cylinders and expanded. Cells producing HA-VHL or HA-VHL (Y98H) were identified by anti-HA immunoblot analysis. […] For the tests shown in FIG. 7C, ts20 cells were grown at the restrictive or permissive temperature for 14 hour, methionine-starved for 90 min, and then grown in the methionine-free media supplemented with ^35S-met ([…]) for 90 min.

T2 sequence (P40337 whole entry): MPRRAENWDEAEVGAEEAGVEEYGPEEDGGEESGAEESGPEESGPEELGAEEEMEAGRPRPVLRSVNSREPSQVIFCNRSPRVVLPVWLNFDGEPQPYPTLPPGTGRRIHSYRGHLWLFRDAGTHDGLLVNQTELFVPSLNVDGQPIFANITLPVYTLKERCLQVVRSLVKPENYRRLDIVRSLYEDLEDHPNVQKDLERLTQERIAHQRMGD
T2 sequence (P62869 whole entry partner): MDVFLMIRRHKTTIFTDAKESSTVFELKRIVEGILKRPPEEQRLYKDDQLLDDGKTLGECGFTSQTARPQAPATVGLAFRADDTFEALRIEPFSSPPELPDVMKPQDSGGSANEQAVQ
T2 sequence (P83940 whole entry partner): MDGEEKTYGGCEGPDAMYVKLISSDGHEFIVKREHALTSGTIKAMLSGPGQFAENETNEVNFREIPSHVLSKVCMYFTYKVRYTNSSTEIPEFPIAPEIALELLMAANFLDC
T1 sequence (P40337 whole entry): as the sequence (P40337 whole entry) above

| elution of HIF bound to HA-pVHL [2] | Substance | binding to pVHL [1] |
| --- | --- | --- |
| – | HIF (556-575) peptide with the Leu562Ala substitution and hydroxyproline at residue 564: HIF1α 556-575 peptide, Leu562Ala, hydroxyproline at 564 (DLDLEMAA[Hyp]YIPMDDDFQLR) | pVHL bound |
| not eluted | HIF (556-575) Pro564Ala peptide: HIF1α 556-575 peptide with Pro564 replaced by alanine (DLDLEMLAAYIPMDDDFQLR) | – |
